± gives the half width of the 95% confidence interval.
Key:
[1] = folding stability dG unfold from trypsin proteolysis; higher = more stable
How it was run: (§1)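 Digests were run with trypsin and chymotrypsin at 11 concentrations in threefold dilutions, plus a no-protease condition, on designed mini-proteins in a PA-tagged cDNA display construct. The mini-proteins were under 80 residues, had no cysteine, and were kept only when AlphaFold2 dimer inter-PAE was above 15. After sequencing, Bayesian fitting of the counts gave K50, from which unfolding free energy was derived against a sequence-predicted unfolded-state K50 and a shared folded-state K50, per protease or combined.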

[2] = folding stability dG unfold from chymotrypsin proteolysis; higher = more stable
How it was run: as §1

[3] = folding stability dG unfold (combined trypsin and chymotrypsin); higher = more stable
How it was run: as §1

Row | Sequence | folding stability dG unfold [1] [kcal/mol] | folding stability dG unfold [2] [kcal/mol] | folding stability dG unfold [3] [kcal/mol]
1 | SIEFKEGQWFPIREIDNNHIEWKHNNEPYKIPPDEIDEPGDWIRITNGRIPEIRPPPPPPVDPEDAKKKKSA [r9_842_TrROS] | 2.6 ± 0.32 | 4.12 ± 0.32 | 3.51 ± 0.33
2 | SAGGSAGGGPKVTVEVTESKVYELEDGSYVAVNTYTVTFEAEGKTVKVTFYRTFPKGFAGGPFSSAGGSAGG [r6_799_TrMRF] | 2.28 ± 0.064 | 2.57 ± 0.14 | 2.42 ± 0.17
3 | SAGGSAGGSAGLPEEIADFVKEILEKAFPNVKVLEVEVEELPEGFYVVRARFEDGSEVEFPISAGGSAGGSA [r18_423_TrMRF] | 4.29 ± 0.091 | 3.47 ± 0.059 | 3.88 ± 0.069
4 | SAGGKMVKIKIVVEVKVEEEVKEGEKVETFKVELTIELPEEEVEKLKAELEKLFPDVKIVEIEKVEPSAGGS [r8_490_TrROS_Hall] | 3.39 ± 0.24 | 3.86 ± 0.47 | 3.7 ± 0.34
5 | SAMEYTLEFDNLKGLTADEIEKAFRDEGYPDVKINGIRRNPDDWTITVHYGPGMPPNRVQNAIRKAIQESAG [r14_657_TrROS] | 1.21 ± 0.045 | 1.87 ± 0.091 | 1.62 ± 0.11
6 | SAGGSATVTVTLVVRDPATGELTTVTATVTLEAAPAPVSVSLSLSLSRDPNGNLSLSLSVSVTVEGSAGGSA [r2_326_TrROS_Hall] | 4.02 ± 0.094 | 5.93 ± 0.13 | > 6
7 | SAGGSAGGSAGGDNFEIEPDISWNPDYGYISIDWTVTIGGKEQPFTIMIPVRLPPPPEDDSAGGSAGGSAGG [r7_413_TrROS] | 1.41 ± 0.099 | 0.712 ± 0.15 | 1.14 ± 0.22
8 | SAGGEIERDPNGWIRMTYTLPGFGYKIEITFRVPDNGMMQIEDIDIEPIPPVPPPPPPKYDPNGEWKYSAGG [r13_646_TrROS] | 1.64 ± 0.08 | 2.25 ± 0.041 | 2.02 ± 0.17
9 | SAGSMSSVKKVKITTTSYDPTNGAKKETSYDVTVTTTTYPATGEITRTIYFTSTGKWKVEHLPPGAPLASAG [r14_587_JUSTAS] | 1.48 ± 0.066 | 2.15 ± 0.12 | 1.97 ± 0.14
10 | SMTLVLENEDGSLYRIEFDEETGEIYIYNAETGEKYRITFKDGKTEEINAKDLSLEELKALPGLKIEPVPSA [r9_205_TrROS_Hall] | 2.74 ± 0.061 | 3.285 ± 0.023 | 3.13 ± 0.056
11 | SAGGGSDTVPPVPKATITFTLPAESPEEAEAAAEEIARELEEEGGIPATATVTTDPETGTVTVTITLESAGG [r13_517_TrMRF] | 0.971 ± 0.033 | 0.672 ± 0.059 | 0.855 ± 0.069
12 | SAGGSAGGSAGGSMIVLRMSADEIKKLLPPGAKIKKIEYDEETDEVYVIIEFDKDGKIISAGGSAGGSAGGS [r4_435_TrROS_Hall] | 1.53 ± 0.028 | 1.32 ± 0.092 | 1.49 ± 0.069
13 | SAGGSAPREIPIMIRVPGYQIEIHKITVPPNGMVQIGLEWRNPGGDKPVTINIWLPLNEIKDFIKASAGGSA [r15_56_TrROS] | 1.83 ± 0.042 | 3.1 ± 0.042 | 2.54 ± 0.14
14 | SAGGSALPPHAVRVLVVTATDTDPGAAAARIAEEFRRKYPNTRVLTRPFDVPPGRPAVVAVVYVDESAGGSA [r15_916_TrMRF] | 1.15 ± 0.12 | 2.54 ± 0.11 | 2.08 ± 0.2
15 | SAGPWWMITIRLPGNKTITIMFPGVKVEVDPKNNTIRIRNPGLGHSIEFKFDPPGKIKDVDIEPIPPNASAG [r5_342_TrROS] | 3.39 ± 0.21 | 4.49 ± 0.13 | 3.95 ± 0.18
16 | MRFEFPLEDGGRVEVEMRPLPDGPVVLDVKITLPNGEEITIPFVFPREEFPDMDMEEIARRVVEEAIRLAKS [r1_92_TrMRF] | 3.463 ± 0.033 | 5.035 ± 0.038 | 4.77 ± 0.058
17 | SAGGSAGGSAGGMRRVTIWFPIPEDEEITFKLPGNGVEVEIEPDKGNGFFRITVYLPDGSAGGSAGGSAGGS [r10_1138_TrROS] | 1.42 ± 0.036 | 2.07 ± 0.12 | 1.94 ± 0.098
18 | SAGGSAGGSAGMKLTITVTFPDGTTPTFEVPPNSGDPAEVAAAIRAAHPDVVTITITPELSAGGSAGGSAGG [r11_311_JUSTAS] | 0.683 ± 0.039 | 0.27 ± 0.063 | 0.448 ± 0.12
19 | SAGGSAGGSAGGSVYIDPDKGYLVMWNEEDGYIVKYPIDPPNKIPSVDIEPIPPGDPLFSAGGSAGGSAGGS [r4_409_TrROS] | 1.51 ± 0.074 | 1.13 ± 0.07 | 1.26 ± 0.11
20 | SAGGNKATLTVSEDNYPVLLLELYAPDGELIATAPVLLDPEKGGLTAADLERLLKEIDVPPDVEVNIASAGG [r13_479_TrMRF] | 1.21 ± 0.096 | 1.36 ± 0.037 | 1.32 ± 0.091
21 | SASSELLELLKALPTPEVPTDPIFTLEEPDRPIRVLSYDPETGLVTMLIPGTGARLIRDPASGTYTLLPSAG [r14_359_JUSTAS] | -0.184 ± 0.07 | 0.92 ± 0.071 | 0.578 ± 0.066

Row | Sequence | folding stability dG unfold [1] [kcal/mol] | folding stability dG unfold [2] [kcal/mol] | folding stability dG unfold [3] [kcal/mol]
22 | SAGGSAGGSAGSMTTTTTIVKLPNGTLVLETPTVTTTTFPETGTTTTTTTVTVTVLPGLSSAGGSAGGSAGG [r11_1008_JUSTAS] | 2.47 ± 0.076 | 1.3 ± 0.029 | 1.89 ± 0.065
23 | SAGGMIKLEFENPDGMRIKIEIDRIHRFDPDNGYLIIPVKIEVEPPGKPREIDGTIILPPGMPPGQPLSAGG [r13_823_TrROS] | 2.04 ± 0.19 | 0.811 ± 0.082 | 1.43 ± 0.24
24 | SAGGSAGGSAGGSMKITKTLIPETGLYKVTITLPGGKPVEIEAPPSSSLEEVKKKAEKLSAGGSAGGSAGGS [r4_205_JUSTAS] | -0.116 ± 0.12 | -0.169 ± 0.26 | -0.145 ± 0.26
25 | SAGGSSESKTVTAPDGRVLEFTKSLDPTSSNSRYTLTVYAPESGEPLREAEFSSEEEAEKYIAEGLGSAGGS [r8_450_JUSTAS] | -0.0113 ± 0.067 | 0.487 ± 0.072 | 0.331 ± 0.068
26 | SAGGEVKTLEVTLEVNGKKVRVRVELTKDGTLKVTVTFEDGTKVELEIKLPKVKVKEVKFYSLEELKSAGGS [r16_48_TrROS_Hall] | 2.22 ± 0.071 | 1.78 ± 0.05 | 2.06 ± 0.1
27 | SIKLSNGETIEYEPSPNKTYTIKHPDGRVVKILKVEREKDKYTVEIQFDDGSTKTIEIPPDKPEIIEKELLS [r1_66_JUSTAS] | 1.37 ± 0.027 | 0.951 ± 0.08 | 1.24 ± 0.12
28 | SAGGSAGGSEKPPVKTITLVLKVDDAEEAAKALAEELGVEITRIEVTRDENGKVYVRITIRLPSAGGSAGGS [r12_359_TrROS_Hall] | 3.6 ± 0.1 | 3.99 ± 0.099 | 3.9 ± 0.14
29 | SAGGSAGGSAGGMIKIKLGDKWVDVAEVKEYPDSIIVYNPKTNTKITISKKNPEDPNILISAGGSAGGSAGG [r7_391_JUSTAS] | 0.463 ± 0.09 | 1.47 ± 0.081 | 1.01 ± 0.21
30 | SAGGSAGGSAGMKKNEKLITELTFEGPDVYVKITIEKTFDPEGNKIYFKAKIEVFAPGELSAGGSAGGSAGG [r11_237_TrMRF] | 2.83 ± 0.097 | 4.06 ± 0.075 | 3.67 ± 0.1
31 | SMPEILDVREDPDAPGALTFRVKLPDGEATVVIPYDPETGTFTAVRYYPDGEEVREFDSFEDALEAILEDSA [r9_366_TrMRF] | 1.45 ± 0.019 | 1.46 ± 0.051 | 1.49 ± 0.053
32 | SAGGSAGGSAAAPPPPTITITVEVRTLPDGTVEITATATLPDGTTLTVTLRINADGSLTATSAGGSAGGSAG [r3_259_TrROS_Hall] | 1.91 ± 0.13 | 3.4 ± 0.17 | 3.17 ± 0.23
33 | SSKTVTVTTEEEEKEAREKIKELVKPGKSVDVEITMTGPDGTRTRRTYKITTNPDGTITIEETETPLPPPSA [r9_1023_JUSTAS] | 1.5 ± 0.034 | 2.43 ± 0.057 | 2.17 ± 0.21
34 | SPFIMIRIDIERKNGKEVEMMFPVPANNIKNNLRDHLGPGYKVKITDIEPIDPEQFPPGQMIKIRYRVKPSA [r9_803_TrROS] | 1.73 ± 0.048 | 1.71 ± 0.13 | 1.79 ± 0.18
35 | SAGGIAEAIGEAIAKAPGVAEVEVDIEITKIEPTPGDGAYAHIDIRVRARHPVTGEEVELRFDIVFPLDSAG [r5_176_TrMRF] | 2.89 ± 0.14 | 3.18 ± 0.15 | 3.05 ± 0.17
36 | SAGGSAGGAPQGSTSSLTDPSTGLRYASTNPPGTSSSFTFPPSVSPEEVAARLRAQGVAGLNLSSAGGSAGG [r6_83_JUSTAS] | -0.81 ± 0.35 | 0.339 ± 0.073 | 0.0679 ± 0.081
37 | SAGGSATKVIYGMSVEEIRAAIKAGAKKIIIVADTEEQKKAAAEELEKEYNIKIEVKKIKPKKKKKSAGGSA [r15_243_TrROS_Hall] | 0.83 ± 0.065 | 2.22 ± 0.039 | 1.89 ± 0.17
38 | SAGMLTLRVVLPKEEAEARARALAEELRRRLGLPPGAKIEVKVVEYDEETGEVVVEVTIEVELPPGVEPSAG [r5_537_TrROS_Hall] | 4.27 ± 0.14 | 3.64 ± 0.051 | 3.98 ± 0.095
39 | SAARKIAKKLKEAFPNFPIKDIEITEYEPNPNGRPYMNISIQFPNGGKMEIQFDDPEHPEIREAIREIMSAG [r14_143_TrROS] | 1.59 ± 0.11 | 1.69 ± 0.086 | 1.49 ± 0.19
40 | GSSMTVEVSESVVPGTGKKILHVTVTFGGSDPEVARAQALAYVEKETGLPVVSVTVTRAPDSWTVNMTVVGS [r1_337_JUSTAS] | 2.86 ± 0.085 | 2.63 ± 0.032 | 2.81 ± 0.083
41 | SAGGSAGGSAGVVDEVKAALEPQGLKVLSVTPGSSSVTVTVLDPKKGETTTFTIPLDDPLSAGGSAGGSAGG [r11_428_JUSTAS] | 1.02 ± 0.029 | 1.28 ± 0.088 | 1.22 ± 0.057
42 | SAGGPYYEWEIKLPDNKTISITMRRNPENGRPQHTVTIHDPEKGKPVKEHPFDSPEEAEELIEEGLLSAGGS [r8_450_TrROS] | -0.0517 ± 0.16 | 0.445 ± 0.21 | 0.287 ± 0.35
